Drawing on patent US20230203158A1, this text covers IC50 (nM, replicate 2), inhibition of TNFα signaling in HEK-BLUE TNFα cells and EC50 (pM), HEK-BLUE IL-10 signaling assay (SEAP) for two substances.

In one assay the target is human TNFα (human) (UniProt P01375). The experiment in a line: cell-based or functional assay.
Assay [1] deals with IL-10 receptor of HEK-BLUE IL-10 cells (the cells express all the components of the IL-10 signaling pathway). The assay can be described thus: cell-based or functional assay.

Chain of human TNFα (human) (P01375 77-233 limits assumed): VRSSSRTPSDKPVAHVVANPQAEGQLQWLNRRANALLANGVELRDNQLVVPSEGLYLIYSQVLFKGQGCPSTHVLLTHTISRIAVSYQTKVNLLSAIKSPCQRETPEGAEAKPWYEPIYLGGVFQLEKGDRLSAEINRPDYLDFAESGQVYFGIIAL

Etanercept (PRO078) (Fc fusion) returned an IC50 (nM, replicate 2), inhibition of TNFα signaling in HEK-BLUE TNFα cells with human TNFα (human) of 0.07 nM.
Substance “recombinant human IL-10 (BioLegend #573204) (from UniProt P22301 19-178) (ligand)” showed an EC50 (pM), HEK-BLUE IL-10 signaling assay (SEAP) in assay [1] of 21 pM.
